For 39 variants, self-cleavage results are on record in the RNAGym collection of RNA variant scans (doi:10.7554/elife.90254).

Sequences and labels used below:
B1: LINE1-full (parent)
chain: UACGUAGGUGGUUUUCCCCUGAUAGUGCUAAGGGGGCCUGGAAGUUUGGACUGGGCAGAGCUCAACACAGCGUGGCAAAGUGGCUGUGGCUAGACUGCCUCUCUGGAUUCCUCGUCACUCAGCAGGGCAUCUCUGAGAGAAAUGCC

Variants of B1 are the subject of this data set. In words: self-cleavage, relative activity (ratio to wild type); higher = more cleavage; in vitro, sequencing; the parent is a self-cleaving ribozyme.
Take UACGUAGGUGGUUUUCCCCUGAUAGUGCUAAGGGGGCCUGGAAGUUUGGACUGGGCAGAGCUCAACACAGCGUGGCAAAGUGGCUGUGUCUAGACUGCCUCUCUGGAUUCCUCGUCACUCAGCAAGGCAUCUCUGAGAGAAAUGCC [G89U G125A]: the self-cleavage is 0.05.

Turning to UACGUAGGUGGUUUUCCCCUGAUAGUGCUAAGGGGGCCUGGAAGUUUGGACUGGGCAGAGCUCAACACAGCGUGGCAAAGUGGCUGUGGUUAGACUGCCUCUCUGGAUUCCUCGUCACUCAGCAGGGCAUCUCUGAGAGAAGUGCC [C90U A142G], the self-cleavage is 0.03.

Turning to UACGUAGGUGGUUUUCCCCUGAUAGUGCUAAGGGGGCCUGGAAGUUUGGACUGGGCAGAGCUCAACACAGCGUGGCAAAGUGGCUGUGGCAGGACUGCCUCUCUGGAUUCCUCGUCACUCAGCAGGGCAUCUCUGAGAGAAAUGCC [U91A A92G], the self-cleavage worked out at 0.16.

Take UACGUAGGUGGUUUUCCCCUGAUAGUGCUAAGGGGGCCUGGAAGUUUGGACUGGGCAGAGCUCAACACAGCGUGGCAAAGUGGCUGUGGUUAGUCUGCCUCUCUGGAUUCCUCGUCACUCAGCAGGGCAUCUCUGAGAGAAAUGCC [C90U A94U]: the self-cleavage amounted to 0.04.

On to UACGUAGGUGGUUUUCCCCUGAUAGUGCUAAGGGGGCCUGGAAGUUUGGACUGGGCAGAGCUCAACACAGCGUGGCAAAGUGGCUGUGUCUAGACUGCCUCUCUGGAUUCCUCGUCACUCAGCAGGGCAUCUCGGAGAGAAAUGCC [G89U U134G], for which the self-cleavage stood at 0.04.

For the variant UACGUAGGUGGUUUUCCCCUGAUAGUGCUAAGGGGGCCUGGAAGUUUGGACUGGGCAGAGCUCAACACAGCGUGGCAAAGUGGCUGUGGAUAGACUGCCUCUCUGGAUUCCUCGUCCCUCAGCAGGGCAUCUCUGAGAGAAAUGCC [C90A A117C], the self-cleavage turned out to be 0.05.

On to UACGUAGGUGGUUUUCCCCUGAUAGUGCUAAGGGGGCCUGGAAGUUUGGACUGGGCAGAGCUCAACACAGCGUGGCAAAGUGGCUGUGUCUAGACUGCCUCUCUGGAUUCCUCGUCACUCAGCAGGGCAUCUCUGAGAGAAGUGCC [G89U A142G], for which the self-cleavage stood at 0.03.

As to UACGUAGGUGGUUUUCCCCUGAUAGUGCUAAGGGGGCCUGGAAGUUUGGACUGGGCAGAGCUCAACACAGCGUGGCAAAGUGGCUGUGGUUAGACUGCCUCUCUGGAUUCCUCGUCACUCAGCAGGGCAUCUCUGAGAGAAAUGCC [C90U], the self-cleavage stood at 0.03.

Consider UACGUAGGUGGUUUUCCCCUGAUAGUGCUAAGGGGGCCUGGAAGUUUGGACUGGGCAGAGCUCAACACAGCGUGGCAAAGUGGCUGUGGAUAGACUGCCUCUCUGGAUUCCUCGUCACUCAGCAGGGCAUCUCUGAGAGAAAUGCC [C90A], for which the self-cleavage is 0.04.

Turning to UACGUAGGUGGUUUUCCCCUGAUAGUGCUAAGGGGGCCUGGAAGUUUGGACUGGGCAGAGCUCAACACAGCGUGGCAAAGUGGCUGUGGGUAGACUGCCUCUCUGGAUUCCUCGUCACUCAGCAGGGCAUCUCUGAGAGAAAUGCC [C90G], the self-cleavage was 0.03.

With UACGUAGGUGGUUUUCCCCUGAUAGUGCUAAGGGGGCCUGGAAGUUUGGACUGGGCAGAGCUCAACACAGCGUGGCAAAGUGGCUGUGGGUAGACUGCCUCCCUGGAUUCCUCGUCACUCAGCAGGGCAUCUCUGAGAGAAAUGCC [C90G U102C], the self-cleavage came out at 0.01.

With UACGUAGGUGGUUUUCCCCUGAUAGUGCUAAGGGGGCCUGGAAGUUUGGACUGGGCAGAGCUCAACACAGCGUGGCAAAGUGGCUGUGGGUAGACUGCCUCUCUGGAUUCCUCGUCACUCAGCAGGGCGUCUCUGAGAGAAAUGCC [C90G A129G], the self-cleavage came to 0.04.

UACGUAGGUGGUUUUCCCCUGAUAGUGCUAAGGGGGCCUGGAAGUUUGGACUGGGCAGAGCUCAACACAGCGUGGCAAAGUGGCUGUGGUUAGACUGCCUCUCUGGAUUCCUCGUCACUCAGCAGGGCAUCUCUGAGAGAAACGCC [C90U U143C]: the self-cleavage worked out at 0.

With UACGUAGGUGGUUUUCCCCUGAUAGUGCUAAGGGGGCCUGGAAGUUUGGACUGGGCAGAGCUCAACACAGCGUGGCAAAGUGGCUGUGGUUAGACUGCCUCUCUGGAUUCCUCGUCACCCAGCAGGGCAUCUCUGAGAGAAAUGCC [C90U U119C], the self-cleavage came out at 0.03.

With UACGUAGGUGGUUUUCCCCUGAUAGUGCUAAGGGGGCCUGGAAGUUUGGACUGGGCAGAGCUCAACACAGCGUGGCAAAGUGGCUGUGGUUAGACUGCCUCUCUGGAGUCCUCGUCACUCAGCAGGGCAUCUCUGAGAGAAAUGCC [C90U U108G], the self-cleavage was 0.09.

Turning to UACGUAGGUGGUUUUCCCCUGAUAGUGCUAAGGGGGCCUGGAAGUUUGGACUGGGCAGAGCUCAACACAGCGUGGCAAAGUGGCUGUGUCUAGACUGCCUCUCUGGGUUCCUCGUCACUCAGCAGGGCAUCUCUGAGAGAAAUGCC [G89U A107G], the self-cleavage turned out to be 0.04.

Take UACGUAGGUGGUUUUCCCCUGAUAGUGCUAAGGGGGCCUGGAAGUUUGGACUGGGCAGAGCUCAACACAGCGUGGCAAAGUGGCUGUGGAUAGACCGCCUCUCUGGAUUCCUCGUCACUCAGCAGGGCAUCUCUGAGAGAAAUGCC [C90A U96C]: the self-cleavage came out at 0.04.

For the variant UACGUAGGUGGUUUUCCCCUGAUAGUGCUAAGGGGGCCUGGAAGUUUGGACUGGGCAGAGCUCAACACAGCGUGGCAAAGUGGCUGUGUCUAAACUGCCUCUCUGGAUUCCUCGUCACUCAGCAGGGCAUCUCUGAGAGAAAUGCC [G89U G93A], the self-cleavage is 0.04.

For UACGUAGGUGGUUUUCCCCUGAUAGUGCUAAGGGGGCCUGGAAGUUUGGACUGGGCAGAGCUCAACACAGCGUGGCAAAGUGGCUGUGGAUAGACUGCCUCUCUGGGUUCCUCGUCACUCAGCAGGGCAUCUCUGAGAGAAAUGCC [C90A A107G], the self-cleavage turned out to be 0.04.

Regarding UACGUAGGUGGUUUUCCCCUGAUAGUGCUAAGGGGGCCUGGAAGUUUGGACUGGGCAGAGCUCAACACAGCGUGGCAAAGUGGCUGUGGAUAGACUGCCUCUCUGGUUUCCUCGUCACUCAGCAGGGCAUCUCUGAGAGAAAUGCC [C90A A107U], the self-cleavage was 0.03.

Consider UACGUAGGUGGUUUUCCCCUGAUAGUGCUAAGGGGGCCUGGAAGUUUGGACUGGGCAGAGCUCAACACAGCGUGGCAAAGUGGCUGUGGUUAGACUGCCUCUCUGGAUUCCUCGUCACUCAGCAGGGCAUCUCUGAGGGAAAUGCC [C90U A138G], for which the self-cleavage stood at 0.04.

As to UACGUAGGUGGUUUUCCCCUGAUAGUGCUAAGGGGGCCUGGAAGUUUGGACUGGGCAGAGCUCAACACAGCGUGGCAAAGUGGCUGUGCCUAGACUGCCUCUCUGGAUUCCUCGUCACUCAGCAGGGCACCUCUGAGAGAAAUGCC [G89C U130C], the self-cleavage was found to be 0.09.

For the variant UACGUAGGUGGUUUUCCCCUGAUAGUGCUAAGGGGGCCUGGAAGUUUGGACUGGGCAGAGCUCAACACAGCGUGGCAAAGUGGCUGUGCCUAGACUGCCUCUCUGGAUUCCUCGUCACUCACCAGGGCAUCUCUGAGAGAAAUGCC [G89C G122C], the self-cleavage turned out to be 0.02.

As for UACGUAGGUGGUUUUCCCCUGAUAGUGCUAAGGGGGCCUGGAAGUUUGGACUGGGCAGAGCUCAACACAGCGUGGCAAAGUGGCUGUGGAUAGACUGCGUCUCUGGAUUCCUCGUCACUCAGCAGGGCAUCUCUGAGAGAAAUGCC [C90A C99G], the self-cleavage was 0.02.

As for UACGUAGGUGGUUUUCCCCUGAUAGUGCUAAGGGGGCCUGGAAGUUUGGACUGGGCAGAGCUCAACACAGCGUGGCAAAGUGGCUGUGUCUAGACUGCCUCUCUGGAUUCCUCGUCACUCAGGAGGGCAUCUCUGAGAGAAAUGCC [G89U C123G], the self-cleavage is 0.07.

As for UACGUAGGUGGUUUUCCCCUGAUAGUGCUAAGGGGGCCUGGAAGUUUGGACUGGGCAGAGCUCAACACAGCGUGGCAAAGUGGCUGUGGUUAGACUGCCUCUCUGGAUUCCUCGCCACUCAGCAGGGCAUCUCUGAGAGAAAUGCC [C90U U115C], the self-cleavage was found to be 0.06.

On to UACGUAGGUGGUUUUCCCCUGAUAGUGCUAAGGGGGCCUGGAAGUUUGGACUGGGCAGAGCUCAACACAGCGUGGCAAAGUGGCUGUGGUUAGACUGCCUCUCUGGAUUCCUCGUCACUCAGCAGGGCAUCUCGGAGAGAAAUGCC [C90U U134G], for which the self-cleavage is 0.04.

For the variant UACGUAGGUGGUUUUCCCCUGAUAGUGCUAAGGGGGCCUGGAAGUUUGGACUGGGCAGAGCUCAACACAGCGUGGCAAAGUGGCUGUGUCUAGACUGCCUCUCUGGAUUCCUCGUCACUCAGCAGGGCAUCUCUGAGAGAAAUGCC [G89U], the self-cleavage came out at 0.01.

As for UACGUAGGUGGUUUUCCCCUGAUAGUGCUAAGGGGGCCUGGAAGUUUGGACUGGGCAGAGCUCAACACAGCGUGGCAAAGUGGCUGUGUCUAGACUGCCUCUCUGGAUUCCUCGUCGCUCAGCAGGGCAUCUCUGAGAGAAAUGCC [G89U A117G], the self-cleavage came out at 0.

As for UACGUAGGUGGUUUUCCCCUGAUAGUGCUAAGGGGGCCUGGAAGUUUGGACUGGGCAGAGCUCAACACAGCGUGGCAAAGUGGCUGUGGGUAGACUGCCUCUCUGGAUUCCUCGUCACUCAGCAGGGCAUCUCUGAGAGAAGUGCC [C90G A142G], the self-cleavage was found to be 0.05.

UACGUAGGUGGUUUUCCCCUGAUAGUGCUAAGGGGGCCUGGAAGUUUGGACUGGGCAGAGCUCAACACAGCGUGGCAAAGUGGCUGUGGUUAGACUGCCUCUCUGGAUUCCCCGUCACUCAGCAGGGCAUCUCUGAGAGAAAUGCC [C90U U112C]: the self-cleavage was 0.03.

As to UACGUAGGUGGUUUUCCCCUGAUAGUGCUAAGGGGGCCUGGAAGUUUGGACUGGGCAGAGCUCAACACAGCGUGGCAAAGUGGCUGUGGUUAGACUGCCUCUCUGGAUUCCACGUCACUCAGCAGGGCAUCUCUGAGAGAAAUGCC [C90U U112A], the self-cleavage is 0.04.

For the variant UACGUAGGUGGUUUUCCCCUGAUAGUGCUAAGGGGGCCUGGAAGUUUGGACUGGGCAGAGCUCAACACAGCGUGGCAAAGUGGCUGUGUCUAGACUGCCUCUCUGGAUUCCUCGUCACUCAGCGGGGCAUCUCUGAGAGAAAUGCC [G89U A124G], the self-cleavage was 0.16.

UACGUAGGUGGUUUUCCCCUGAUAGUGCUAAGGGGGCCUGGAAGUUUGGACUGGGCAGAGCUCAACACAGCGUGGCAAAGUGGCUGUGGUUAGACUGCCACUCUGGAUUCCUCGUCACUCAGCAGGGCAUCUCUGAGAGAAAUGCC [C90U U100A]: the self-cleavage came out at 0.04.

Take UACGUAGGUGGUUUUCCCCUGAUAGUGCUAAGGGGGCCUGGAAGUUUGGACUGGGCAGAGCUCAACACAGCGUGGCAAAGUGGCUGUGGUUAGACUGCCUCUCUGGGUUCCUCGUCACUCAGCAGGGCAUCUCUGAGAGAAAUGCC [C90U A107G]: the self-cleavage stood at 0.03.

With UACGUAGGUGGUUUUCCCCUGAUAGUGCUAAGGGGGCCUGGAAGUUUGGACUGGGCAGAGCUCAACACAGCGUGGCAAAGUGGCUGUGGAUAGACUGCCUCUCUGGAUUCCUCGUCACUCAGCAGGGCAUCUCUGAGAGAGAUGCC [C90A A141G], the self-cleavage was found to be 0.03.

As to UACGUAGGUGGUUUUCCCCUGAUAGUGCUAAGGGGGCCUGGAAGUUUGGACUGGGCAGAGCUCAACACAGCGUGGCAAAGUGGCUGUGGUUAUACUGCCUCUCUGGAUUCCUCGUCACUCAGCAGGGCAUCUCUGAGAGAAAUGCC [C90U G93U], the self-cleavage worked out at 0.04.

UACGUAGGUGGUUUUCCCCUGAUAGUGCUAAGGGGGCCUGGAAGUUUGGACUGGGCAGAGCUCAACACAGCGUGGCAAAGUGGCUGUGCCUAGACUGCCUCUCUGGAUUCCUCGUCACACAGCAGGGCAUCUCUGAGAGAAAUGCC [G89C U119A]: the self-cleavage stood at 0.02.

For the variant UACGUAGGUGGUUUUCCCCUGAUAGUGCUAAGGGGGCCUGGAAGUUUGGACUGGGCAGAGCUCAACACAGCGUGGCAAAGUGGCUGUGGUUAGACUGCCUCUCUGGAUUCCUCGUCACUCAGCAGGGCACCUCUGAGAGAAAUGCC [C90U U130C], the self-cleavage was found to be 0.04.
